# Laboratory results taken from patent US20240393292A1, “ALLERGY ANTIGEN AND EPITOPE THEREOF” (HOYU CO., LTD., priority 2019, published 2024).
# B1: Globulin 3 (protein, listed as Triticum aestivum)
# chain: MATRARVTIPLLFLLGTSLLFAAAVSASHDEEEDRRGGRSLQQCVQRCQQDRPRYSHARCVQECRDDQQQHGRHEQEEQGRGHGRHGEGEREEEQGRGRGRHGQGEREEEQGRGRGRRGEGERDEEHGDGRRPYVFGPRSFRRIIRSDHGFVKALRPFDEVSRLLRGIRNYRVAIMEVNPRAFVVPGLTDADGVGYVAQGEGVLTVIENGEKRSYTVRQGDVIVAPAGSIMHLANTDGRRKLVIAKILHTISVPGKFQYFSAKPLLASLSKRVLTAALKTSDERLGSLLGSRQGKEEEEKSISIVRASEEQLRELRRQASEGDQGHHWPLPPFRGDSRDTFNLLEQRPKIANRHGRLYEADARSFHALAQHDVRVAVANITPGSMTAPYLNTQSFKLAVVLEGEGEVEIVCPHLGRDSERREQEHGKGRWRSEEEEDDRRQQRRRGSGSESEEEQDQQRYETVRARVSRGSAFVVPPGHPVVEIASSRGSSNLQVVCFEINAERNERVWLAGRNNVIAKLDDPAQELTFGRPAREVQEVFRAKDQQDEGFVAGPEQQQEHERGDRRRGDRGRGDEAVEAFLRMATAAL
# modifications: posttranslational modification
# notes: same protein as spot 12, differing posttranslational modification
# B2: Gamma-gliadin (protein, listed as Triticum aestivum)
# chain: MKIFMVFALLVASTTITTATAQLDPRIHDQERPQQSFLQQQPLIQQQPYPPQEPQQPLFPQKEPQQPFPLQQPQYQQQQPYPQQPLPQEQLPQQHLFPQQPPQQQFPQQMPLPHQQQTFPQQQQQQQQQEQLPQQLPQFPQQQPFSQYQQPLTQQPYSQEQPLPQQQPSVEEKQQLNLCKEFLLQQCNPEEKLSLLQSVIPFLRPKTSQQNSCQLKRLQCCRQLAHISEPSRCPAIHNIVHAIVMQQQHVDRGFGQPQPQQLGQEMPMQPQHQLGQHSILPQQLAQYKLVRLLVIQTLPMLCNVHVPSDCYTITAPFGSMTAYNGGQ
# modifications: posttranslational modification
# notes: same protein as spot 16, differing posttranslational modification
# Tested on: IgE antibody in the serum of a wheat-allergic patient
# Assay: Immunoblotting of two-dimensional electrophoresis pattern of wheat proteins with patient serum
# Assay type: binding, human
# Conditions: immunoblot of 2D electrophoresis; compared with serum of non-wheat-allergic subject
# Method: Identification of antigens by immunoblotting was carried out by taking all the steps up to the step of “Second-dimensional SDS-PAGE” as described above in Example 1, followed by the steps of “Transfer to membrane”, “Immunoblotting” and “Analysis” as described below.
# Transfer to membrane was done using the following transfer system and transfer buffer. • Transfer system: XCell SureLock Mini-Cell and XCell II Blot Module (produced by Life Technologies) • Transfer buffer: NuPAGE Transfer Buffer (×20) (produced by Life Technologies), used in a form diluted […] with milliQ water. […]
# The immunoblots obtained with the serum from the wheat-allergic patient were compared with those obtained with the control serum from the non-wheat-allergic subject. For protein present in wheat, in immunoblotting using the serum from the wheat-allergic patient, 16 spots were detected (FIG. 2), which are different from the spots detected when the serum of the non-wheat-allergic subject was used and different from those of the known wheat allergen proteins. […]
row,Molecule,specific binding of IgE antibody in serum of wheat-allergic patient to protein spot
1,B1,binding to IgE antibodies was confirmed
2,B2,binding to IgE antibodies was confirmed
